According to paper PMC3406928 (Hypertension, 2012):

Molecular target: T1, angiotensin type 2 receptor (human (endogenous in RPTCs), UniProt P50052 1-363)
T1 sequence (looked up): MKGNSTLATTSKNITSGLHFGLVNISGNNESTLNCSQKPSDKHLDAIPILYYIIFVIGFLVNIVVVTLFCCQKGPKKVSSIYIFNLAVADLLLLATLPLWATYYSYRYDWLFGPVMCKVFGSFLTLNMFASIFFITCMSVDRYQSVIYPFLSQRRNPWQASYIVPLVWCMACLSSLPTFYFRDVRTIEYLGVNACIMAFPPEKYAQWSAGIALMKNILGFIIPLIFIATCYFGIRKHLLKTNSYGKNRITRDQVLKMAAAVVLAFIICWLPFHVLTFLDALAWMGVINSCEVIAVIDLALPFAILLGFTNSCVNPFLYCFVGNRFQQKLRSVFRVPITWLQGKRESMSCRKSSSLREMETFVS
Test: FRET or BRET

B1: dopamine D1 receptor (receptor, human (endogenous in nRPTCs), UniProt P21728 1-446, looked up)
chain: MRTLNTSAMDGTGLVVERDFSVRILTACFLSLLILSTLLGNTLVCAAVIRFRHLRSKVTNFFVISLAVSDLLVAVLVMPWKAVAEIAGFWPFGSFCNIWVAFDIMCSTASILNLCVISVDRYWAISSPFRYERKMTPKAAFILISVAWTLSVLISFIPVQLSWHKAKPTSPSDGNATSLAETIDNCDSSLSRTYAISSSVISFYIPVAIMIVTYTRIYRIAQKQIRRIAALERAAVHAKNCQTTTGNGKPVECSQPESSFKMSFKRETKVLKTLSVIMGVFVCCWLPFFILNCILPFCGSGETQPFCIDSNTFDVFVWFGWANSSLNPIIYAFNADFRKAFSTLLGCYRLCPATNNAIETVSINNNGAAMFSSHHEPRGSISKECNLVYLIPHAVGSSEDLKKEEAAGIARPLEKLSPALSVILDYDTDVSLEKIQPITQNGQHPT
With B1 the “fold increase of corrected FRET after FEN stimulation vs. control” value was 1.96 fold.
